Usually Kd stands for the constant that tells how readily two partners part at equilibrium. A high value points to weaker binding. A word on the kon: it is the second-order rate constant of association.

The target in the test is mouse rec1c sNASP variant protein (V281I, L282F) (mouse). Briefly: BLI; Octet K2, 30 C; sNASP WT or variant immobilised on aminopropylsilane (APS) biosensors, histones in assay buffer at various concentrations (62.5 to 1,000 nM shown for H4), association 240 s; n = 4.

As for “mouse H3.1/H4 tetramer complex (from UniProt P68433 1-136; P62806 1-103)”, the Kd is 14.5 nM and the kon amounted to 37200 M⁻¹ s⁻¹.
Take “mouse histone H4 (from UniProt P62806 1-103) (natural protein)”: the Kd turned out to be 23.2 nM and the kon turned out to be 15900 M⁻¹ s⁻¹.

For the origin of these results see PMC6454087.
